Experimental data reported in patent US10533038B2, “Methods of reducing TDP-43-mediated neuronal cytotoxicity in amyotrophic lateral sclerosis by a UPF1 polypeptide or polynucleotide” (Brandeis University, priority 2012, dated 2020).
Entries after “also recorded” stand apart in the source; their conditions may differ.

B1: UPF1: protein involved in nonsense-mediated mRNA decay (NMD), expressed in neurons; amino acid sequence SEQ ID NO: 2 (protein, listed as Homo sapiens)
chain: MSVEAYGPSSQTLTFLDTEEAELLGADTQGSEFEFTDFTLPSQTQTPPGGPGGPGGGGAGSPGGAGAGAAAGQLDAQVGPEGILQNGAVDDSVAKTSQLLAELNFEEDEEDTYYTKDLPIHACSYCGIHDPACVVYCNTSKKWFCNGRGNTSGSHIVNHLVRAKCKEVTLHKDGPLGETVLECYNCGCRNVFLLGFIPAKADSVVVLLCRQPCASQSSLKDINWDSSQWQPLIQDRCFLSWLVKIPSEQEQLRARQITAQQINKLEELWKENPSATLEDLEKPGVDEEPQHVLLRYEDAYQYQNIFGPLVKLEADYDKKLKESQTQDNITVRWDLGLNKKRIAYFTLPKTDSDMRLMQGDEICLRYKGDLAPLWKGIGHVIKVPDNYGDEIAIELRSSVGAPVEVTHNFQVDFVWKSTSFDRMQSALKTFAVDETSVSGYIYHKLLGHEVEDVITKCQLPKRFTAQGLPDLNHSQVYAVKTVLQRPLSLIQGPPGTGKTVTSATIVYHLARQGNGPVLVCAPSNIAVDQLTEKIHQTGLKVVRLCAKSREAIDSPVSFLALHNQIRNMDSMPELQKLQQLKDETGELSSADEKRYRALKRTAERELLMNADVICCTCVGAGDPRLAKMQFRSILIDESTQATEPECMVPVVLGAKQLILVGDHCQLGPVVMCKKAAKAGLSQSLFERLVVLGIRPIRLQVQYRMHPALSAFPSNIFYEGSLQNGVTAADRVKKGFDFQWPQPDKPMFFYVTQGQEEIASSGTSYLNRTEAANVEKITTKLLKAGAKPDQIGIITPYEGQRSYLVQYMQFSGSLHTKLYQEVEIASVDAFQGREKDFIILSCVRANEHQGIGFLNDPRRLNVALTRARYGVIIVGNPKALSKQPLWNHLLNYYKEQKVLVEGPLNNLRESLMQFSKPRKLVNTINPGARFMTTAMYDAREAIIPGSVYDRSSQGRPSSMYFQTHDQIGMISAGPSHVAAMNIPIPFNLVMPPMPPPGYFGQANGPAAGRGTPKGKTGRGGRQKNRFGLPGPSQTNLPNSQASQDVASQPFSQGALTQGYISMSQPSQMSQPGLSQPELSQDSYLGDEFKSQIDVALSQDSTYQGERAYQHGGVTGLSQY

Legend:
ALS patients = details: some ALS patients; cited from earlier work
FUS/TLS = test: Cytoplasmic level of FUS/TLS in neuronal cells expressing UPF1; format: cell-based; details: expression of UPF1
Source text: (§1) The present invention encompasses the surprising finding that NMD agents are useful, among other things, in the treatment or prevention (i.e., delay of onset) of ALS. […] Accordingly, in some embodiments, an NMD agent is provided to the central nervous system of a subject, e.g., a subject suffering from or susceptible to ALS. In some embodiments, an NMD agent is provided to one or more of target cells or tissues of brain, spinal cord, and/or peripheral organs. In some embodiments, target cells or tissues include those cells or tissues that display a disease-associated pathology, symptom, or feature. In some embodiments, target cells or tissues include those cells or tissues in which TDP-43 or FUS/TLS is expressed at an elevated level, e.g., cells in which TDP-43 or FUS/TLS is expressed at an elevated level in the cytoplasm of the cells. As used herein, a target tissue may be a brain target tissue, a spinal cord target tissue and/or a peripheral target tissue.

[1] = tested on: ALS-associated mutants of SOD1; test: Rescue of toxicity of ALS-associated mutants of SOD1 by UPF1 expression; format: cell-based
wild type neurons = test: Kaplan-Meyer survival of wild type motor neurons expressing UPF1; format: cell-based, mice or human; details: UPF1 expression in motor neurons; FIG. 1A
Source text: (§2) To test the efficacy of UPF1 in reducing TDP-43 or FUS-mediated cytotoxicity in neurons, UPF1 was expressed in motor neurons expressing disease-associated FUS or TDP-43. Motor neurons were either isolated from mice or created from fibroblasts taken from human ALS patients using iPS cell techniques (described in Yamanaka et al., Cell 126:663-676 (2006)). FUS or TDP-43 were tagged with EGFP (Enhanced Green Fluorescent Protein) and expressed in motor neurons, which were visualized by fluorescent microscopy using mApple.
(§3) The motor neurons died within a few days of FUS or TDP-43 expression due to toxicity of these ALS-related proteins. UPF1 was expressed in the motor neurons and Kaplan-Meyer survival curves were determined.

[2] = tested on: motor neurons expressing FUS; test: Survival of motor neurons expressing disease-associated FUS and UPF1; format: cell-based, mice or human; details: UPF1 expressed in cells expressing FUS; data not shown
Source text: as §2, §3

TDP-43 = test: Cytoplasmic level of TDP-43 in neuronal cells expressing UPF1; format: cell-based; details: expression of UPF1
Source text: as §1

[3] = tested on: ALS-associated TDP-43 mutations in yeast; test: Yeast model of ALS: suppression of cytotoxicity of TDP-43 mutations; format: cell-based
[4] = tested on: FUS/TLS toxicity in yeast; details: yeast model of ALS; Ju et al., PLoS Biol. 2011; cited from earlier work
[5] = tested on: motor neurons expressing TDP-43; test: Kaplan-Meyer survival of motor neurons expressing disease-associated TDP-43 and UPF1; format: cell-based, mice or human; details: UPF1 expressed in motor neurons expressing EGFP-tagged TDP-43; FIG. 1B
Source text: as §2, §3

| Molecule | extension of lifespan of ALS patients (ALS patients) | cytoplasmic levels of FUS/TLS in the neuronal cells (FUS/TLS) | rescue of toxicity of ALS-associated mutants of SOD1 [1] | effect on survival of wild type neurons (wild type neurons) | toxicity of FUS in motor neurons [2] | cytoplasmic levels of TDP-43 in the neuronal cells (TDP-43) | cytotoxicity of ALS-associated TDP-43 mutations in yeast [3] | toxicity of FUS/TLS in yeast [4] | toxicity of TDP-43 in motor neurons [5] |
| --- | --- | --- | --- | --- | --- | --- | --- | --- | --- |
| Nc1nc2ccc(OC(F)(F)F)cc2s1 [riluzole] | about 3 months |  |  |  |  |  |  |  |  |
| B1 |  | no effect | unable to rescue | no effect | reduces cellular toxicity | no effect | able to suppress the cytotoxicity | able to rescue toxicity; also recorded: suppressed toxicity | reduces cellular toxicity; also recorded: completely eliminate the toxicity of TDP-43 in a dose-dependent manner |
